Laboratory results from the supplement of paper PMC10724198.
± gives the standard deviation of the averaged measurements.

test system: Saccharomyces cerevisiae; experiment: protein stability index of tFT-peptide fusion (C-terminal peptide) (PSI (0-1 scale)); higher = more stable (slower turnover); details: genetic background: wild type; temperature: 30 C
Protocol: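 MPS profiling in S. cerevisiae of the yeast C-terminome library: the last 12 aa of each annotated ORF are fused to the C-terminus of a sfGFP-mCherry timer, after a GGGS linker. Cells are FACS-sorted into 8 mCherry/sfGFP bins and deep-sequenced. PSI runs from 0 (unstable) to 1 (stable); wild type and das1Δ backgrounds, two technical replicates each.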

In order of rising protein stability index:
1. MLKFLAVVFFLL [YGL218W C-terminal 12 aa]  0.217 ± 0.011
2. LTSYINVHLVYV [YNL285W C-terminal 12 aa]  0.325 ± 0.0042
3. LEHYSLSTFVCC [YAL045C C-terminal 12 aa]  0.3476 ± 0.0029
4. LTLIPILFGKLQ [YNL203C C-terminal 12 aa]  0.354 ± 0.0097
5. LLLSAFLRNLVP [YAL016C-A C-terminal 12 aa]  0.375 ± 0.0073
6. LVSYFIKVQMKL [ECM3 C-terminal 12 aa]  0.443 ± 0.025
7. LFGTCLVAMLLF [SPS22 C-terminal 12 aa]  0.449 ± 0.022
8. LTSIWKTILFFK [YEL076C C-terminal 12 aa]  0.468 ± 0.061
9. LVKCASATIMLN [MIN3 C-terminal 12 aa]  0.483 ± 0.022
10. LGFYYIYTLHRA [ERG9 C-terminal 12 aa]  0.498 ± 0.03
11. KTHTEYGYVMVA [YGR137W C-terminal 12 aa]  0.5401 ± 0.0042
12. LSQFSNVRYLLQ [VPS70 C-terminal 12 aa]  0.545 ± 0.0054
13. MEALKEAREILG [MSH1 C-terminal 12 aa]  0.628 ± 0.019
14. MSSTKKVRFVML [RMD5 C-terminal 12 aa]  0.642 ± 0.035
15. LSDDEEEEEEEE [RIX1 C-terminal 12 aa]  0.645 ± 0.033
16. LKMDKLGNYILE [RIO2 C-terminal 12 aa]  0.65 ± 0.043
17. LQNNDVTIGFAK [MUD1 C-terminal 12 aa]  0.655 ± 0.02
18. MQHRGWSSLMSL [YJR146W C-terminal 12 aa]  0.6548 ± 0.0047
19. LRRSFAIYTLGH [MCM2 C-terminal 12 aa]  0.6562 ± 0.0043
20. KTSLKITHRRVI [YGL117W C-terminal 12 aa]  0.658 ± 0.0094
21. LEDQDGSLYLNY [PFU1 C-terminal 12 aa]  0.662 ± 0.025
22. MKGYGFEVPSAN [COX17 C-terminal 12 aa]  0.663 ± 0.0067
23. KVWVAGQQVYQI [GUD1 C-terminal 12 aa]  0.6639 ± 0.0028
24. LLASCIETTRNK [LOT6 C-terminal 12 aa]  0.667 ± 0.027
25. MKEKLKHSRKYM [SHY1 C-terminal 12 aa]  0.6685 ± 0.0027
26. KVSPAAAAKKAL [RPS26B C-terminal 12 aa]  0.6696 ± 0.00082
27. LNIGGNLVTPLC [YSH1 C-terminal 12 aa]  0.671 ± 0.037
28. LCFSKDIQLDFQ [FIG4 C-terminal 12 aa]  0.672 ± 0.043
29. LITMIRFVNSQK [DCG1 C-terminal 12 aa]  0.673 ± 0.034
30. KTFINNVINVYH [FRM2 C-terminal 12 aa]  0.674 ± 0.018
31. LSGAPQVTKKQN [POM33 C-terminal 12 aa]  0.674 ± 0.016
32. MTSLDICALGIK [RVS161 C-terminal 12 aa]  0.675 ± 0.046
33. KYCRVPLPENNR [YEL008C-A C-terminal 12 aa]  0.677 ± 0.068
34. LGDIYTLTNNEL [PHO13 C-terminal 12 aa]  0.6802 ± 0.00082
35. LLRKLSMKRPFS [APL1 C-terminal 12 aa]  0.682 ± 0.047
36. LQLFVNLGCPLS [YDR455C C-terminal 12 aa]  0.683 ± 0.019
37. LESTHDKAIAGK [MNN2 C-terminal 12 aa]  0.684 ± 0.021
38. MKLFEENKKEEE [PET111 C-terminal 12 aa]  0.684 ± 0.035
39. LYTFIVKKVKRD [GID12 C-terminal 12 aa]  0.685 ± 0.024
40. LIIRNLNAEKER [YFR056C C-terminal 12 aa]  0.686 ± 0.039
41. LPFSVEPTTSRM [YFR036W-A C-terminal 12 aa]  0.687 ± 0.017
42. LGDSPSQGRSIS [YPK2 C-terminal 12 aa]  0.688 ± 0.024
43. LTHQSLLATARK [KIP3 C-terminal 12 aa]  0.6879 ± 0.00097
44. LFQALKLEWEII [TEP1 C-terminal 12 aa]  0.69 ± 0.037
45. LSHAQKEIYEFK [UTP25 C-terminal 12 aa]  0.691 ± 0.056
46. LLEDIRANYSLN [YLL056C C-terminal 12 aa]  0.692 ± 0.028
47. LQPWEGRLYLLK [IMA5 C-terminal 12 aa]  0.693 ± 0.063
48. KWGMEDSPPPYH [MDM34 C-terminal 12 aa]  0.6942 ± 0.0043
49. LVAEATKKKRHT [DJP1 C-terminal 12 aa]  0.6936 ± 0.0052
50. LDKIKTDDTYTS [FYV7 C-terminal 12 aa]  0.6966 ± 0.0045
51. LSEEDLLDDESS [YPF1 C-terminal 12 aa]  0.698 ± 0.0078
52. LFMNAVIKTFKK [DGK1 C-terminal 12 aa]  0.6997 ± 0.0014
53. LLAKKKLKPNLL [YGR293C C-terminal 12 aa]  0.7 ± 0.04
54. LQEPDRDNDDSG [NTC20 C-terminal 12 aa]  0.7 ± 0.017
55. LVYATELIGSGS [ICE2 C-terminal 12 aa]  0.7 ± 0.073
56. LHPFREPAKINI [YDR048C C-terminal 12 aa]  0.701 ± 0.054
57. LLGFTTGKEVHL [SMF2 C-terminal 12 aa]  0.701 ± 0.014
58. MFNASSDIFQRN [YML083C C-terminal 12 aa]  0.7014 ± 0.0067
59. LQPDVPPSSGRS [KEX2 C-terminal 12 aa]  0.703 ± 0.011
60. MLAKIHKLNNKA [RFC4 C-terminal 12 aa]  0.704 ± 0.066
61. LDLQNQNKKNLW [PIN4 C-terminal 12 aa]  0.707 ± 0.023
62. LKIVEKIIASEQ [YLR419W C-terminal 12 aa]  0.711 ± 0.029
63. LNNKDTKSVRHA [BRR6 C-terminal 12 aa]  0.711 ± 0.026
64. LRVEWSKPKVKE [TIF35 C-terminal 12 aa]  0.711 ± 0.044
65. LPLKLTRKVHDR [RIF2 C-terminal 12 aa]  0.713 ± 0.012
66. MFLSIQPQEARP [KAP120 C-terminal 12 aa]  0.713 ± 0.011
67. KYFCDFLLDPEI [ECM14 C-terminal 12 aa]  0.719 ± 0.01
68. LYEHGIKKFDDL [JIP5 C-terminal 12 aa]  0.721 ± 0.039
69. LPGINSIFKNIF [TOD6 C-terminal 12 aa]  0.722 ± 0.063
70. MNNLFNPHSHDS [GTA1 C-terminal 12 aa]  0.722 ± 0.042
71. LPSINTIFKDML [DOT6 C-terminal 12 aa]  0.731 ± 0.059
72. LVKPKNWKKFRE [KRE2 C-terminal 12 aa]  0.733 ± 0.022
73. LKYCKRRHNTPS [GCR1 C-terminal 12 aa]  0.736 ± 0.021
74. LANFSNEVAMNN [SWP82 C-terminal 12 aa]  0.738 ± 0.13
75. MLNQQQQQQQQS [NRD1 C-terminal 12 aa]  0.739 ± 0.017
76. LARTDVNFMPWF [TRA1 C-terminal 12 aa]  0.744 ± 0.031
77. LRFEEMNSDLVQ [ROG1 C-terminal 12 aa]  0.747 ± 0.12
78. LEHMLEGKEQDE [PRM5 C-terminal 12 aa]  0.751 ± 0.036
79. LKAVCPPEAGFD [VEL1 C-terminal 12 aa]  0.772 ± 0.019
80. LTEMSAKISFED [AAD10 C-terminal 12 aa]  0.779 ± 0.011
81. LETAFEEWDYYE [MRX6 C-terminal 12 aa]  0.787 ± 0.064
82. LSQWVSQMPFPM [LRO1 C-terminal 12 aa]  0.8015 ± 0.0025
